# Data from US20250025552A1 (published 2025).
# B1: His-caspase 11 (full length mouse caspase 11 with a TEV cleavable N-terminal 6xHis tag) (enzyme, UniProt P70343 1-373, looked up)
# chain: MAENKHPDKPLKVLEQLGKEVLTEYLEKLVQSNVLKLKEEDKQKFNNAERSDKRWVFVDAMKKKHSKVGEMLLQTFFSVDPGSHHGEANLEMEEPEESLNTLKLCSPEEFTRLCREKTQEIYPIKEANGRTRKALIICNTEFKHLSLRYGANFDIIGMKGLLEDLGYDVVVKEELTAEGMESEMKDFAALSEHQTSDSTFLVLMSHGTLHGICGTMHSEKTPDVLQYDTIYQIFNNCHCPGLRDKPKVIIVQACRGGNSGEMWIRESSKPQLCRGVDLPRNMEADAVKLSHVEKDFIAFYSTTPHHLSYRDKTGGSYFITRLISCFRKHACSCHLFDIFLKVQQSFEKASIHSQMPTIDRATLTRYFYLFPGN
# notes: Monomer or oligomer fractions from size exclusion chromatography were incubated with oxPAPC and run on Superdex 200; not shown: TEV cleavable N-terminal 6xHis tag from the pFastBac HT A vector
# Target: the molecule itself
# Assay: gel filtration (Superdex 200) of His-caspase 11 after incubation with oxPAPC; self-association
# Procedure: To measure the ability of oxPAPC to oligomerize caspase-11, monomer or oligomer fractions of His-caspase 11 were incubated with oxPAPC for 2 hours on ice, and then analyzed with Superdex 200 (10/300).
protein,measurement,value
B1,binding result,binds
